Reference: patent US20210238275A1 (published 2021)

B1: N026 (antibody)
heavy: not shown
light: QSALTQPASVSGSPGQSITISCTGTGSDVGSYNLVSWYQQHPGKAPKLMIYGDSERPSGVSNRFSGSKSGNTASLTISGLQAEDEADYYCSSYAGSGIYVFGTGTKVTVLGQPKAAPSVTLFPPSSEELQANKATLVCLISDFYPGAVTVAWKADSSPVKAGVETTTPSKQSNNKYAASSYLSLTPEQWKSHKSYSCQVTHEGSTVEKTVAPTECS
B2: N023 (antibody)
heavy: not shown
light: B1 light
B3: N027 (antibody)
heavy: not shown
light: B1 light
B4: N022 (antibody)
heavy: not shown
light: B1 light
B5: N024 (antibody)
heavy: not shown
light: B1 light

The binders below were run against cell surface, glycophosphatidylinositol (GPI)-linked human FcRn on HEK 293 cells (human, UniProt P55899 24-297, C-terminal engineered GPI linkage) (assay: IgG competition on 293 cell surface; pH 6.0).

Row | EC50 | Binder
1 | 3.24 nM | B1
2 | 2.48 nM | B2
3 | 3.25 nM | B3
4 | 2.93 nM | B4
5 | 2.48 nM | B5
